Assay results taken from patent US6794491B1, “Polypeptides, their production and use” (Takeda Chemical Industries, Ltd., priority 1995, dated 2004).
“Also recorded” adds a separate entry of the source. Where no end group is shown, it is not given here. [ ]: non-standard residue; d: D form. Met(O) = CS(=O)CC[C@H](N)C(=O)O

Tests used:
[1] = target: T1, full-length receptor protein expressed CHO cells (CHO-19P2); human pituitary receptor protein (hGR3) (Homo sapiens, UniProt P49683); experiment: release of arachidonic acid metabolites from CHO-19P2 cells; format: cell-based; details: for arachidonic acid metabolite-releasing activity: amount of [3H]arachidonic acid metabolites, 10^−12 M-10^−6 M in 0.05% BSA-HBSS
T1 construct: to construct a full-length receptor protein expression plasmid pAKKO-19P2; expressed in transfected cells; host or cells: CHO dhfr- cells transfected with pAKKO-19P2 (CHO-19P2; clone CHO-19P2-9)
T1 sequence (P49683 1-370): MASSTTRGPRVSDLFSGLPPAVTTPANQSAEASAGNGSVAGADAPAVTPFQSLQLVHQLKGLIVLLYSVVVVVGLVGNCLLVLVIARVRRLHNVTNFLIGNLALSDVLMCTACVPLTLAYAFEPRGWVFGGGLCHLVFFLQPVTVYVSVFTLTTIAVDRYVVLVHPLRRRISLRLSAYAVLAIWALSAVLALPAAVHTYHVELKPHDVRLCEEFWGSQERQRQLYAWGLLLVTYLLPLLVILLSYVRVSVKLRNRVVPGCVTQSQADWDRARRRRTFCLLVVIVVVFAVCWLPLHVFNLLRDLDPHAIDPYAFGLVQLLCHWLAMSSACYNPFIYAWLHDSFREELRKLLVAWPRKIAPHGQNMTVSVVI
Experimental: The full-length receptor protein-expressed CHO cells and mock CHO cells were seeded in a 24-well plate, 0.5×10^5 cells/well, and cultured for 24 hours. Then, [^3H] arachidonic acid was added at a final concentration of 0.25 μCi/well. Sixteen (16) hours after addition of [^3H] arachidonic acid, the cells were rinsed with 0.05% BSA-HBSS and the above-mentioned crude peptide fraction was added, 400 μl/well. The mixture was incubated at 37° C. for 30 minutes and a 300 μl portion of the reaction mixture (400 μl) was added to 4 ml of a scintillator and the amount of [^3H] arachidonic acid metabolite released into the reaction mixture was determined with a scintillation counter.
The activity of the peptide (19P2-L31) synthesized in Example 21 to specifically release arachidonic acid metabolites from CHO-19P2 cells was assayed in the same manner as Example 11. The synthetic peptide was dissolved in degassed dH20 at a concentration of 10^−3M and diluted with 0.05% BSA-HBSS and the activity to promote release of arachidonic acid metabolites from CHO-19P2 cells at each concentration was assayed using the amount of [^3H]arachidonic acid metabolites as the indicator.
The activity of the synthetic equivalent (19P2-L20) of natural peptide P-2 as synthesized in Example 23 to specifically promote release of arachidonic acid metabolites from CHO-19P2 cells was determined as in Example 11. Thus, the synthetic peptide was dissolved in degassed dH2O at a final concentration of 10^−3M and this solution was serially diluted with 0.05% BAS-HBSS. The activity to specifically promote release of arachidonic acid metabolites from CHO-19P2 cells at each concentration was assayed using the amount of [^3H]arachidonic acid metabolites as the indicator.

[2] = plasma growth hormone (GH) level in freely moving rats, GHRH-induced; format: in vivo, male Wistar rats; details: 5 μg/kg GHRH intravenously
Experimental: Mature male Wistar rats were anesthetized with pentobarbital 50 mg/kg i.p. and, as in Example 41, a stainless-steel guide cannula AG-12 (0.4 mm in. dia., 0.5 mm out. dia., EICOM) was implanted in position with its tip situated in the upper part of the third ventricle. After the operation the rats were housed in individual cages and kept for at least 3 days for recuperation and, then, a cannula (30 cm long, 0.5 mm in. dia., 0.9 mm out. dia., Natsume Seisakusho) filled with heparin (200 U/ml)-containing saline was inserted into the right atrium from the right jugular vein under pentobarbital anesthesia. The rats were maintained overnight for complete arousal from anesthesia and then transferred to transparent acrylic cages (30 cm×30 cm×35 cm). A 1 ml tuberculin syringe with a 24-G needle (both by Termo) was connected to the cannula inserted in the atrium and 300 μl of blood was drawn. To prevent clotting, the syringe was filled with 20 μl of saline containing 200 U/ml of heparin beforehand. […] The concentrations of GH in the plasma were determined by radioimmunoassay.
The results were expressed as a mean±S.E.M. To test for significant difference between the group treated with 19P2-L31 dissolved in PBS and the control group treated with PBS alone, Student's t-test was used. […]

Row | Substance | arachidonic acid metabolite-releasing activity compared with that of 19P2-L31 [1] | arachidonic acid metabolite-releasing activity [1] | plasma GH level [2]
1 | 19P2-L31(O): the methionine-oxidation product of 19P2-L31 synthesized in Example 22 (SRAHQHS[Met(O)]EIRTPDINPAWYAGRGIRPVGRF-NH2; N-terminus assumed; SMILES CC[C@H](C)[C@H](NC(=O)CNC(=O)[C@H](CCCNC(=N)N)NC(=O)CNC(=O)[C@H](C)NC(=O)[C@H](Cc1ccc(O)cc1)NC(=O)[C@H](Cc1c[nH]c2ccccc12)NC(=O)[C@H](C)NC(=O)[C@@H]1CCCN1C(=O)[C@H](CC(N)=O)NC(=O)[C@@H](NC(=O)[C@H](CC(=O)O)NC(=O)[C@@H]1CCCN1C(=O)[C@@H](NC(=O)[C@H](CCCNC(=N)N)NC(=O)[C@@H](NC(=O)[C@H](CCC(=O)O)NC(=O)[C@H](CCS(C)=O)NC(=O)[C@H](CO)NC(=O)[C@H](Cc1c[nH]cn1)NC(=O)[C@H](CCC(N)=O)NC(=O)[C@H](Cc1c[nH]cn1)NC(=O)[C@H](C)NC(=O)[C@H](CCCNC(=N)N)NC(=O)[C@@H](N)CO)[C@@H](C)CC)[C@@H](C)O)[C@@H](C)CC)C(=O)N[C@@H](CCCNC(=N)N)C(=O)N1CCC[C@H]1C(=O)N[C@H](C(=O)NCC(=O)N[C@@H](CCCNC(=N)N)C(=O)N[C@@H](Cc1ccccc1)C(N)=O)C(C)C) | equivalent to the activity of 19P2-L31 | found in a dose-dependent manner | –
2 | GHRH: Growth hormone releasing hormone (YADAIFTNSYRKVLGQLSARKLLQDIMSRQQGESNQERGARARL; ends and bridges not checked; UniProt P01286 32-75, looked up) [reference compound] | – | – | elevated the plasma GH level
3 | Thr-Pro-Asp-Ile-Aln-Pro-Ala-Trp-Tyr-Ala-Gly-Arg-Gly-Ile-Arg-Pro-Val-Gly-Arg-Phe-NH2 (TPDINPAWYAGRGIRPVGRF-NH2; also: position 5 written 'Aln' in name, letter N) [19P2-L20] | in nearly the same degree as 19P2-L31 | concentration-dependent arachidonic acid metabolite-releasing activity was detected over the range of 10^−12-10^−6M; also recorded: found in a dose-dependent manner | –
